Source: publication PMC10960814

Tests used:
[1] = target: full-length human IR-A, Myc-tagged (pCS2-IR-A-Myc) (human) (UniProt P06213); assay: competition-binding assay (fluorescent insulin on bead-bound receptor); IR-A-Myc or IR-B-Myc held on anti-c-Myc magnetic beads; 1 nM Alexa Fluor labeled human insulin and the indicated amount of homemade IGF2, 4 °C, 14 h; 20 mM Hepes pH 7.4, 200 mM NaCl, 0.03% DDM, 0.003% CHS, 100 nM BSA; fluorescence of the eluate
[2] = target: full-length human IR-B, Myc-tagged (pCS2-IR-B-Myc) (human) (UniProt P06213); assay: as above
[3] = target: full-length human insulin receptor, B isoform (hIR-B), with a kinase-dead mutation, construct for structural studies (human); assay: cryo-EM structure; purified hIR-A or hIR-B dimer fraction (20 mM HEPES-Na pH 7.5, 400 mM NaCl, 0.03% DDM) with refolded IGF2 added at a 2:8 (m/m) ratio, 2 h; saturated IGF2

fold of binding affinity against IGF2 WT [1] [fold] | fold of binding affinity against IGF2 WT [2] [fold] | stoichiometry N (IGF2 per IR dimer (class 1, symmetric)) [3] | stoichiometry N (IGF2 per IR dimer (class 2, asymmetric)) [3] | stoichiometry N ([3]; scale: IGF2 per IR dimer) | Substance
3 | 3 | – | – | – | IGF2 R30A mutant (ligand)
– | – | 4 | 3 | 2 | insulin-like growth factor 2 (IGF2), wild type, homemade (from UniProt P01344 25-91) (ligand)
